Data taken from article PMC5910394, “Mechanically interlocked functionalization of monoclonal antibodies” (Nature Communications, 2018).
pKd: −log10 of the molar value. Values belong to the substance of their own block, whether it stands above or below them.

Experiments:
[1] = target: anti-HER2 memAb (trastuzumab-based, meditope-enabled anti-HER2 antibody); experiment: SPR; memAb variant amine-coupled to a CM5 chip, peptide flowed over at 30 uL/min, HBS-EP+, 25 °C, Biacore T100, 1:1 binding model
Chain of anti-HER2 memAb (trastuzumab-based, meditope-enabled anti-HER2 antibody) (heavy, as listed by the source, chain 1 of 2): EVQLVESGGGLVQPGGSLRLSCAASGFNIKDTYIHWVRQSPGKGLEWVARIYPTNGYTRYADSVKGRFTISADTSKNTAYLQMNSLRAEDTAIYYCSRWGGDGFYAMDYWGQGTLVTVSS
Chain of anti-HER2 memAb (trastuzumab-based, meditope-enabled anti-HER2 antibody) (light, as listed by the source, chain 2 of 2): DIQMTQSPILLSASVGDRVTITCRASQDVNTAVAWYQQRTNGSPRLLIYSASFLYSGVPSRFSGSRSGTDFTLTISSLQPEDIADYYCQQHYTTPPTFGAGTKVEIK

[2] = target: Ile83Glu anti-HER2 memAb; experiment: SPR; memAb variant amine-coupled to a CM5 chip, peptide flowed over at 30 uL/min, HBS-EP+, 37 °C, Biacore T100, 1:1 binding model
Chain of Ile83Glu anti-HER2 memAb (heavy, as listed by the source, chain 1 of 2): as the sequence (heavy, as listed by the source, chain 1 of 2) above
Chain of Ile83Glu anti-HER2 memAb (light, as listed by the source, chain 2 of 2): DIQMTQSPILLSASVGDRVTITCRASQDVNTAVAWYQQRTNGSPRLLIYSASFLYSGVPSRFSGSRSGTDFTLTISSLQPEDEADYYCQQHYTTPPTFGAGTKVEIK

[3] = target: long meditope ((Ac)…); experiment: SPR; settings: 37 °C (red point beside label LE); n = 1; parent: est. 5.3; read off a plot
[4] = target: memAb anti-HER2 (meditope-enabled, trastuzumab-based anti-HER2 antibody); experiment: SPR; memAb anti-HER2 amine-coupled on a CM5 chip, meditope flowed over at 30 uL/min, HBS-EP+, 25 °C, 1:1 model, global fit, n=1 (authors estimate the error at 10-50%)
Chain of memAb anti-HER2 (meditope-enabled, trastuzumab-based anti-HER2 antibody) (heavy, as listed by the source, chain 1 of 2): as the sequence (heavy, as listed by the source, chain 1 of 2) above

pKd [1]: 7.40
Substance: meditope with Leu5 substituted by L-diphenylalanine (peptide)

pKd [2]: 8.68
half-life [2]: 1.38 h
Substance: 5-diphenylalanine-8-Arg-(PEG)2-azido-meditope ((Ac)CQFDA(Ph)2STRXLRCGGSK, X = arginine-(PEG)2-azide) (peptide)

kon (log10(M-1 s-1)) [3]: 5.6
Substance: anti-HER2 memAb (trastuzumab-based, meditope-enabled anti-HER2 antibody) LC:Ile83Glu

koff [4]: 0.008 s⁻¹
kon [4]: 200000 M⁻¹ s⁻¹
Substance: CQFDA(Ph)2STRRLKC meditope (peptide)
